Measurements published in patent publication US20110165161A1, “ANTI-EPCAM ANTIBODIES THAT INDUCE APOPTOSIS OF CANCER CELLS AND METHODS USING SAME” (priority 2009, published 2011).

Key:
EGFI-Cr1 Q47A = biological target: T1, EGFI-Cr1 Q47A (human, UniProt P16422 24-63); assay: direct ELISA, coated EGFI-Cr1 fusion, 0.1 µg/ml antibody
T1 construct: not shown: the constant region of human immunoglobulin gamma 1 heavy chain (Cr1) fused at the C-terminus
T1 chain: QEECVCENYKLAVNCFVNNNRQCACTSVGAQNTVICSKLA
Method: (§1) A direct ELISA was used for testing the reactivity of anti-EpCAM antibodies toward variant EpCAM mutants. Briefly, purified EpCAM EGF-1 fusion proteins (WT, Q24A, E25K, E26D, A35T, N37R, F39A, V40E, N41A, N42E, N43A, R44G, Q45A, Q47A or T49A) and irrelevant control (CEA-Cr1) were pre-diluted to 0.5 μg/ml in coating buffer (8.4 g NaHCO₃, 3.4 g Na₂CO₃ in 1 L H₂O, pH 9.5) and aliquoted (100 μl/well) into 96-well plates. […] Plates were then washed 3 times with PBST followed by the addition of the enzyme substrate TMB (BD Biosciences, Cat. No. 555214). […] The optical densities at 450 nm wavelength were measured on an ELISA plate reader.

[1] = biological target: T2, EGFI-Cr1 wild type (first EGF-like repeat of human EpCAM fused to the constant region of human immunoglobulin … (human, UniProt P01857-1 99-330 = IgG part)); assay: as above
T2 construct: cDNA covered aa 1-63; Expressed in COS-7 cells; also called WT; EpCAM EGF-1 fusion protein WT
Method: as §1

EGFI-Cr1 E26D = biological target: T3, EGFI-Cr1 E26D (human, UniProt P16422 24-63); assay: as above
T3 construct: not shown: The fused constant region of human immunoglobulin gamma 1 heavy chain (Cr1)
T3 chain: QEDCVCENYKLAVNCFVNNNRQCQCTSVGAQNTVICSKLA
Method: as §1

EGFI-Cr1 Q45A = biological target: T4, EGFI-Cr1 Q45A (human, UniProt P16422 24-63); assay: as above
T4 construct: not shown: the constant region of human immunoglobulin gamma 1 heavy chain (Cr1) fused at the C-terminus
T4 chain: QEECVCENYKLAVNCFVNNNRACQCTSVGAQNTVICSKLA
Method: as §1

EGFI-Cr1 V40E = biological target: T5, EGFI-Cr1 V40E (human); assay: as above
T5 construct: not shown: The fused constant region of human immunoglobulin gamma 1 heavy chain (Cr1)
T5 chain: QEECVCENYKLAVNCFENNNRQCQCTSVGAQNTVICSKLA
Method: as §1

EGFI-Cr1 T49A = biological target: T6, EGFI-Cr1 T49A (human, UniProt P16422 24-63); assay: as above
T6 construct: not shown: the constant region of human immunoglobulin gamma 1 heavy chain (Cr1) fused at the C-terminus
T6 chain: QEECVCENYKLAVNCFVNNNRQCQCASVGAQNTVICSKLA
Method: as §1

EGFI-Cr1 N43A = biological target: T7, EGFI-Cr1 N43A (human, UniProt P16422 24-63); assay: as above
T7 construct: not shown: the constant region of human immunoglobulin gamma 1 heavy chain (Cr1) fused at the C-terminus
T7 chain: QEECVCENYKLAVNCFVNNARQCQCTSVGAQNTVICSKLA
Method: as §1

EGFI-Cr1 N41A = biological target: T8, EGFI-Cr1 N41A (human, UniProt P16422 24-63); assay: as above
T8 construct: not shown: The fused constant region of human immunoglobulin gamma 1 heavy chain (Cr1)
T8 chain: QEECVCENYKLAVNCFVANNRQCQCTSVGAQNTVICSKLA
Method: as §1

EGFI-Cr1 N37R = biological target: T9, EGFI-Cr1 N37R (human); assay: as above
T9 construct: not shown: The fused constant region of human immunoglobulin gamma 1 heavy chain (Cr1)
T9 chain: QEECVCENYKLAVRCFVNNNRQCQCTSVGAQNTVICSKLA
Method: as §1

EGFI-Cr1 E25K = biological target: T10, EGFI-Cr1 E25K (human, UniProt P16422 24-63); assay: as above
T10 construct: not shown: The fused constant region of human immunoglobulin gamma 1 heavy chain (Cr1)
T10 chain: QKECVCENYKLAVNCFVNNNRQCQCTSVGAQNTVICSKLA
Method: as §1

EGFI-Cr1 Q24A = biological target: T11, EGFI-Cr1 Q24A (human, UniProt P16422 25-63); assay: as above
T11 construct: not shown: The fused constant region of human immunoglobulin gamma 1 heavy chain (Cr1)
T11 chain: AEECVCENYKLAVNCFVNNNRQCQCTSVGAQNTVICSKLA
Method: as §1

EGFI-Cr1 F39A = biological target: T12, EGFI-Cr1 F39A (human, UniProt P16422 24-63); assay: as above
T12 construct: not shown: The fused constant region of human immunoglobulin gamma 1 heavy chain (Cr1)
T12 chain: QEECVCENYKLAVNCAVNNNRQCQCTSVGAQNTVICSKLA
Method: as §1

EGFI-Cr1 N42E = biological target: T13, EGFI-Cr1 N42E (human, UniProt P16422 24-63); assay: as above
T13 construct: not shown: the constant region of human immunoglobulin gamma 1 heavy chain (Cr1) fused at the C-terminus
T13 chain: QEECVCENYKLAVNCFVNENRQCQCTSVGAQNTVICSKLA
Method: as §1

EGFI-Cr1 A35T = biological target: T14, EGFI-Cr1 A35T (human, UniProt P16422 24-63); assay: as above
T14 construct: not shown: The fused constant region of human immunoglobulin gamma 1 heavy chain (Cr1)
T14 chain: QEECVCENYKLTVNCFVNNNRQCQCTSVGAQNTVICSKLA
Method: as §1

EGFI-Cr1 R44G = biological target: T15, EGFI-Cr1 R44G (human, UniProt P16422 24-63); assay: as above
T15 construct: not shown: the constant region of human immunoglobulin gamma 1 heavy chain (Cr1) fused at the C-terminus
T15 chain: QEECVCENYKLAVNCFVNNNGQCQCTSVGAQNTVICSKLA
Method: as §1

[2] = biological target: T16, human EpCAM (epithelial cell adhesion/activating molecule) (human, UniProt P16422 24-314); assay: flow cytometry, CHO/EpCAM cells, 0.1 µg/ml antibody
T16 construct: also called hEpCAM; CHO/EpCAM
T16 sequence: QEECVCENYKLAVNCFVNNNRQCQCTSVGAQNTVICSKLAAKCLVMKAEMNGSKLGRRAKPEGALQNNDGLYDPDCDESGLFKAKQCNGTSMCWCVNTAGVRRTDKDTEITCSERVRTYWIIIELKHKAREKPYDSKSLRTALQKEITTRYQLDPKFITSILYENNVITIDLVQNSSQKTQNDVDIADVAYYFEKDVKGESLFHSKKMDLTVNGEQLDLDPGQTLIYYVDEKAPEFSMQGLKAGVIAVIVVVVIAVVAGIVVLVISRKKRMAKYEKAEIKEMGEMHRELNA
Method: A 300× dilution of human cell hyper-immune serum (HPS 300×) was used as binding positive control for both cell lines here. After 1 hr incubation at 4° C., cells were washed twice with 200 μl FACS buffer (1×PBS containing 1% FBS), stained with 100 μl of 1 μg/ml goat-anti-mouse IgG-PE (Southern Biotech, Cat. No. 1032-09) in FACS buffer and then incubated at 4° C. for 30 min. Cells were washed thrice with FACS buffer and analyzed by flow cytometry (BD LSR, BD Life Sciences).

[3] = biological target: T16, human EpCAM (epithelial cell …); assay: cell-based or functional assay
[4] = biological target: T16, human EpCAM (epithelial cell …); assay: cell-based or functional assay; remark: listed apart in the source

B1: murine monoclonal antibody 4D2 (antibody, mouse IgG1, V domains shown)
VH: EVQLVESGGDLVKPGGSLKLSCAASGFAFDSYGMSWVRQTPGKRLEWVATISSGGYYTYYQDSVKGRFTTSRDNAKNTLDLQMSSLKSEDSAIYYCARRGNYDVDYYAMDYWGQGTSVTVSS
VL: DVVMTQTPLSLPVSLGDQASISCRSSQSLVHSNGNTYLHWYLQKPGQSPKLLIYKVSNRFSGVPDRFSGSGSGTDFTLRISRVEAEDLGVYFCSQSTHVPPWTFGGGTKLEIKR
notes: Mouse IgG1, kappa, from hybridoma; also called m338-4D2.20
relative binding activity (% of WT) (EGFI-Cr1 Q47A): 23% | relative binding activity (% of WT) [1]: 100% | relative binding activity (% of WT) (EGFI-Cr1 E26D): 52% | relative binding activity (% of WT) (EGFI-Cr1 Q45A): 4% | relative binding activity (% of WT) (EGFI-Cr1 V40E): 1% | relative binding activity (% of WT) (EGFI-Cr1 T49A): 63% | relative binding activity (% of WT) (EGFI-Cr1 N43A): 57% | relative binding activity (% of WT) (EGFI-Cr1 N41A): 0% | relative binding activity (% of WT) (EGFI-Cr1 N37R): 64% | relative binding activity (% of WT) (EGFI-Cr1 E25K): 2% | relative binding activity (% of WT) (EGFI-Cr1 Q24A): 41% | relative binding activity (% of WT) (EGFI-Cr1 F39A): 11% | relative binding activity (% of WT) (EGFI-Cr1 N42E): 82% | relative binding activity (% of WT) (EGFI-Cr1 A35T): 27% | relative binding activity (% of WT) (EGFI-Cr1 R44G): 1% | MFI [2]: 1740 MFI | % of Annexin V + PI staining (untreated background subtracted), NCI-H358, 10 µg/ml mAb, Exp1 [3]: 43% | % of Annexin V + PI staining (untreated background subtracted), NCI-H358, 10 µg/ml mAb, Exp2 [3]: 41% | % of Annexin V + PI staining (untreated background subtracted), NCI-H358, 10 µg/ml mAb, Exp3 [3]: 45% | % of Annexin V + PI staining (untreated background subtracted), NCI-H358, 10 µg/ml mAb, Exp4 [3]: 46% | % of Annexin V + PI staining (untreated background subtracted), NCI-H358, 10 µg/ml mAb, Exp5 [3]: 43% | % Annexin V/PI-positive cells, DLD-1, 1.0 µg/ml mAb [4]: 31% | % Annexin V/PI-positive cells, DLD-1, 3.0 µg/ml mAb [4]: 51% | % Annexin V/PI-positive cells, DLD-1, 10 µg/ml mAb [4]: 62% | % Annexin V/PI-positive cells, FaDu, 1.0 µg/ml mAb [4]: 37% | % Annexin V/PI-positive cells, FaDu, 3.0 µg/ml mAb [4]: 43% | % Annexin V/PI-positive cells, FaDu, 10 µg/ml mAb [4]: 46% | % Annexin V/PI-positive cells, LNCaP, 1.0 µg/ml mAb [4]: 49% | % Annexin V/PI-positive cells, LNCaP, 3.0 µg/ml mAb [4]: 52% | % Annexin V/PI-positive cells, LNCaP, 10 µg/ml mAb [4]: 50% | % Annexin V/PI-positive cells, NCI-H520, 1.0 µg/ml mAb [4]: 24% | % Annexin V/PI-positive cells, NCI-H520, 3.0 µg/ml mAb [4]: 30% | % Annexin V/PI-positive cells, NCI-H520, 10 µg/ml mAb [4]: 32% | % Annexin V/PI-positive cells, NCI-N87, 1.0 µg/ml mAb [4]: 49% | % Annexin V/PI-positive cells, NCI-N87, 3.0 µg/ml mAb [4]: 52% | % Annexin V/PI-positive cells, NCI-N87, 10 µg/ml mAb [4]: 55% | % Annexin V/PI-positive cells, NIH:OVCAR-3, 1.0 µg/ml mAb [4]: 40% | % Annexin V/PI-positive cells, NIH:OVCAR-3, 3.0 µg/ml mAb [4]: 51% | % Annexin V/PI-positive cells, NIH:OVCAR-3, 10 µg/ml mAb [4]: 56% | % Annexin V/PI-positive cells, T-47D, 1.0 µg/ml mAb [4]: 35% | % Annexin V/PI-positive cells, T-47D, 3.0 µg/ml mAb [4]: 44% | % Annexin V/PI-positive cells, T-47D, 10 µg/ml mAb [4]: 45%
